From paper PMC10407285 (The Journal of Biological Chemistry, 2023)

Legend:
[1] = biological target: T1, Ca. Diapherotrites archaeon SpeD homolog (PIN84875) (Candidatus Diapherotrites archaeon CG11_big_fil_rev_8_21_14_0_20_37_9, UniProt A0A2G9N1A6); assay: coupled CO2-release assay (NADH, A340), Michaelis-Menten fit; type: biochemical; details: 50 mM Hepes pH 7.7, 100 mM NaCl, 1 mM DTT, 26 °C; pyruvoyl-dependent decarboxylation
T1 construct: self-processed pyruvoyl enzyme
Excerpt: Diapherotrites archaeon SpeD homolog (PIN84875)

[2] = biological target: T2, Ca. Woesearchaeota archaeon SpeD homolog (PIN80235) (Candidatus Woesearchaeota archaeon CG10_big_fil_rev_8_21_14_0_10_34_8, UniProt A0A2G9MN15); assay: as above; type: biochemical; details: 50 mM Hepes pH 7.7, 100 mM NaCl, 1 mM DTT, 26 °C; pyruvoyl-dependent decarboxylation
T2 construct: self-processed pyruvoyl enzyme
Excerpt: Woesearchaeota archaeon SpeD homolog (PIN80235)

[3] = biological target: T3, Ca. Marinimicrobia bacterium SpeD (PIS27863) (Fidelibacterota bacterium CG08_land_8_20_14_0_20_45_22, UniProt A0A2H0XSF6); assay: as above; type: biochemical, Candidatus Fidelibacterota bacterium; details: 50 mM Hepes pH 7.7, 100 mM NaCl, 1 mM DTT, 26 °C; pyruvoyl-dependent decarboxylation
T3 construct: self-processed pyruvoyl enzyme
Excerpt: Marinimicrobia bacterium SpeD (PIS27863)

[4] = system: Ca. Atribacteria bacterium SpeD2 (PIU25646); details: 50 mM Hepes pH 7.7, 100 mM NaCl, 1 mM DTT, 26 °C; pyruvoyl-dependent decarboxylation
Excerpt: coupled CO2-release assay (NADH, A340), Michaelis-Menten fit on Ca. Atribacteria bacterium SpeD2 (PIU25646)

[5] = system: Ca. Peribacteria bacterium SpeD (OGJ64158); details: 50 mM Hepes pH 7.7, 100 mM NaCl, 1 mM DTT, 26 °C; pyruvoyl-dependent decarboxylation
Excerpt: coupled CO2-release assay (NADH, A340), Michaelis-Menten fit on Ca. Peribacteria bacterium SpeD (OGJ64158)

[6] = system: Ca. Sumerlaeota bacterium SpeD2 (MBN1518199); details: 50 mM Hepes pH 7.7, 100 mM NaCl, 1 mM DTT, 26 °C; pyruvoyl-dependent decarboxylation
Excerpt: coupled CO2-release assay (NADH, A340), Michaelis-Menten fit on Ca. Sumerlaeota bacterium SpeD2 (MBN1518199)

[7] = biological target: T4, Ca. Electrothrix aarhusiensis SpeD homolog (RWX43081) (Candidatus Electrothrix aarhusensis, UniProt A0A3S3QFL2); details: 50 mM Hepes pH 7.7, 100 mM NaCl, 1 mM DTT, 26 °C; pyruvoyl-dependent decarboxylation
T4 construct: gene H206_03171
Excerpt: coupled CO2-release assay (NADH, A340), Michaelis-Menten fit on Ca. Electrothrix aarhusiensis SpeD homolog (RWX43081)

[8] = system: N=C(N)NCCC[C@H](N)C(=O)O; assay: purified protein; details: 50 mM Hepes pH 7.7, 100 mM NaCl, 1 mM DTT, 26 °C, pyruvoyl-dependent decarboxylation
[9] = substrate: NCCC[C@H](N)C(=O)O; assay: purified protein; details: 50 mM Hepes pH 7.7, 100 mM NaCl, 1 mM DTT, 26 °C, pyruvoyl-dependent decarboxylation
[10] = substrate: N=C(N)NCCC[C@H](N)C(=O)O; assay: coupled CO2-release assay (NADH, A340), Michaelis-Menten fit; type: biochemical, Capsulimonas corticalis; details: 50 mM Hepes pH 7.7, 100 mM NaCl, 1 mM DTT, 26 °C, pyruvoyl-dependent decarboxylation
Excerpt: coupled CO2-release assay (NADH, A340), Michaelis-Menten fit on Capsulimonas corticalis SpeD homolog (WP_119321511)

[11] = substrate: N=C(N)NCCC[C@H](N)C(=O)O; assay: as above; type: biochemical, Tribonema minus; details: 50 mM Hepes pH 7.7, 100 mM NaCl, 1 mM DTT, 26 °C, pyruvoyl-dependent decarboxylation
Excerpt: coupled CO2-release assay (NADH, A340), Michaelis-Menten fit on Tribonema minus SpeD homolog (KAG5182568)

T1 sequence (A0A2G9N1A6 1-75 limits assumed): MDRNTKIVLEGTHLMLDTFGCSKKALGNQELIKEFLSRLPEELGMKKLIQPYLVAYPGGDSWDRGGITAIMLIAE
T1 sequence (A0A2G9N1A6 76-142 limits assumed): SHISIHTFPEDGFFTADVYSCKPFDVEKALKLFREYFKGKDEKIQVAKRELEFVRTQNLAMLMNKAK
T4 sequence (A0A3S3QFL2 entry or part of it): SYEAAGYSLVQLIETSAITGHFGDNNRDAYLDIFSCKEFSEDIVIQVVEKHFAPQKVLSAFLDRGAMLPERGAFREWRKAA
T4 sequence (A0A3S3QFL2 entry or part of it): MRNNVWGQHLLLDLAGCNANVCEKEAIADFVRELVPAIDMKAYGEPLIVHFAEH
T2 sequence (A0A2G9MN15 1-79 limits assumed): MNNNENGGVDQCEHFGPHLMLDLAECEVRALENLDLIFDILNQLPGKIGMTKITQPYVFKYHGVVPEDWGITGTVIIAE
T2 sequence (A0A2G9MN15 80-150 limits assumed): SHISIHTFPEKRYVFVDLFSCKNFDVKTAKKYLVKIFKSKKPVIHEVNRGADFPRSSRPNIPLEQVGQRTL
T3 sequence (A0A2H0XSF6 1-72 limits assumed): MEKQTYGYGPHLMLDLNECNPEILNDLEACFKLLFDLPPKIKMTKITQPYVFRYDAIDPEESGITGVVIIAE
T3 sequence (A0A2H0XSF6 73-131 limits assumed): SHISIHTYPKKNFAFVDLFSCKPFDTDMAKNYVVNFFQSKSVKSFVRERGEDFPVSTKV

Molecule: N=C(N)NCCC[C@H](N)C(=O)O [L-arginine]
- Km [1]: 95 ± 19 µM
- Km [2]: 350 ± 24 µM
- Km [3]: 760 ± 50 µM

Molecule: NCCC[C@H](N)C(=O)O [L-ornithine]
- Km [4]: 330 ± 30 µM
- Km [5]: 270 ± 20 µM
- Km [6]: 21 ± 1.3 µM
- Km [7]: 89 ± 13 µM

Molecule: Ca. Poseidonales archaeon SpeD homolog (DAC51064) (Candidatus Poseidoniales archaeon)
- Km [8]: 2800 ± 500 µM
- kcat [8]: 0.48 ± 0.042 s⁻¹
- kcat/Km [8]: 180 ± 19 M⁻¹ s⁻¹

Molecule: Nannochloropsis gaditana SpeD homolog (XP_005856029) (Microchloropsis gaditana)
- Km [8]: 1300 ± 100 µM
- kcat [8]: 0.049 ± 0.003 s⁻¹
- kcat/Km [8]: 39 ± 0.3 M⁻¹ s⁻¹

B1: Ca. Velamenicoccus archaeovorus LiM SpeD homolog (WP_128700171) (Candidatus Velamenicoccus archaeovorus) (protein)
chain: MPKNVTMPAGSFGLEVVLDLYGCDPQTIRSAKKLSEFTTKLCKLLKMKKYGKTLLPHFGYDKAHTAGYSMLQFIETSSITGHFSELWNSAYINIFSCREFDAHKAADFTVKFFGARKATRRVLLRK
- Km [9]: 73 ± 3.2 µM
- kcat [9]: 0.008 s⁻¹
- kcat/Km [9]: 113 M⁻¹ s⁻¹

B2: Methanospirillum hungatei JF-1 SpeD2 (WP_011448617) (Methanospirillum hungatei JF-1) (protein)
chain: MIDTLVPTREGIATAPAKSDQEIMEEFKSRNAWGLYTSVDLKNCNPETIRDAGKIREFVIQLCDLIKMKRFGEPQIINFGPCERVAGYSMTQLIETSLIGAHFANETNAAYIDIFSCKEYAPQLTAEFCREFFGADKVTVHIAFRD
- Km [9]: 230 ± 18 µM
- kcat [9]: 0.05 s⁻¹
- kcat/Km [9]: 220 M⁻¹ s⁻¹

B3: Capsulimonas corticalis SpeD homolog (WP_119321511) (Capsulimonas corticalis) (protein)
chain: MKNHTTYGAHLTLRIANIERRHALQGPHGVSDLLVDLIDRIGMRILAGPLTAEETGDPERRGWSSVAILYESHCAIHTYPELGEAFLDVFSCKTFPIAAITTLLTERFGEFAIVEQSLTDRGIHWGPNVEKELASWVLTRSEK
notes: self-processed pyruvoyl enzyme
- Km [10]: 370 ± 50 µM
- kcat [10]: 0.08 ± 0.003 s⁻¹
- kcat/Km [10]: 220 ± 36 M⁻¹ s⁻¹

B4: Tribonema minus SpeD homolog (KAG5182568) (Tribonema minus) (protein)
chain: MRVPIQRTTVPQSSPLIRAHGSHIMLDFTEWWMPPEEGAEAVMELVRAALREEGVREVHHKAVVLGTRGESPPGFTAVVLIDESHVTAHCYADRGWLALDVFTCGGASTARVAAAIEAGVRRLSPRAVLQQRASAPRFVHRVD
notes: as for B3
- Km [11]: 720 ± 110 µM
- kcat [11]: 0.08 ± 0.004 s⁻¹
- kcat/Km [11]: 110 ± 10 M⁻¹ s⁻¹
